Measured values as given in article PMC11079029, “Intramolecular autoinhibition regulates the selectivity of PRPF40A tandem WW domains for proline-rich motifs” (Nature Communications, 2024).
Substitutions are numbered along the chain they refer to. Several values for one entry are separate records, joined by “and”; a condition that tells them apart may be missing. Equal entries are not always repeated.

B1: PRPF40A WW12 (tandem WW domains, residues 141-236) (domain or fragment, human, UniProt O75400 141-236, looked up)
chain: GAKSMWTEHKSPDGRTYYYNTETKQSTWEKPDDLKTPAEQLLSKCPWKEYKSDSGKPYYYNSQTKESRWAKPKELEDLEGYQNTIVAGSLITKSNL
notes: pETM11 vector (NcoI/KpnI); also called PRPF40A WW tandem; isolated WW domains; source: E. coli BL21(DE3), purified (Ni-NTA, TEV cleavage, reverse Ni-NTA, SEC); not shown: His6, N-terminal, cleaved
B2: GB1-SF1(575-590) 16-mer peptide, SF1 PRPF40A WW binding site (peptide)
chain: GAMSGSPPLPPGAPPPPPPPPPSGSN
notes: common N-terminal residues after the TEV site (TEVsite-GAMSGS-peptide-SGSN); SF1 (splicing factor 1) residues 575-590; common C-terminal residues; pET24 vector with 6xHis, GB1 and TEV site as N-terminal cassette, not cleaved for ITC; also called SF1_(WWbs); SF1 WWbs; source: E. coli BL21(DE3), purified (Ni-NTA, SEC); not shown: GB1, N-terminal, kept

Key:
Conditions in all cases: both partners purified
[1] = target: T1, GB1-polyproline peptide P22; assay: ITC; MicroCal PEAQ-ITC, 25 °C, 20 mM sodium phosphate pH 6.5, 100 mM NaCl; GB1-polyproline peptides in the cell, WW12 in the syringe (N sites >1: more than one WW tandem on one peptide); one-site model; apparent
T1 construct: common N-terminal residues after the TEV site (TEVsite-GAMSGS-peptide-SGSN); 22 consecutive prolines; common C-terminal residues; pET24 vector with 6xHis, GB1 and TEV site as N-terminal cassette, not cleaved; also called polyproline length 22; source: E. coli BL21(DE3), purified (Ni-NTA, SEC); not shown: GB1, N-terminal, kept
T1 chain: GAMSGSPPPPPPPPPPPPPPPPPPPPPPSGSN

[2] = target: T2, GB1-polyproline peptide P25; assay: as above
T2 construct: common N-terminal residues after the TEV site (TEVsite-GAMSGS-peptide-SGSN); 25 consecutive prolines; common C-terminal residues; pET24 vector with 6xHis, GB1 and TEV site as N-terminal cassette, not cleaved; also called polyproline length 25; source: E. coli BL21(DE3), purified (Ni-NTA, SEC); not shown: GB1, N-terminal, kept
T2 chain: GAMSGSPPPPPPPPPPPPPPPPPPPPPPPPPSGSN

[3] = target: T3, GB1-polyproline peptide P29; assay: as above
T3 construct: common N-terminal residues after the TEV site (TEVsite-GAMSGS-peptide-SGSN); 29 consecutive prolines; common C-terminal residues; pET24 vector with 6xHis, GB1 and TEV site as N-terminal cassette, not cleaved; also called polyproline length 29; source: E. coli BL21(DE3), purified (Ni-NTA, SEC); not shown: GB1, N-terminal, kept
T3 chain: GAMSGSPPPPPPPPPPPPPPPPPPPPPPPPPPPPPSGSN

[4] = target: T4, GB1-SF1 Pro BC (residues 468-594) (UniProt Q15637 468-594); assay: ITC; MicroCal PEAQ-ITC, 25 °C, 20 mM sodium phosphate pH 6.5, 100 mM NaCl; GB1-tagged SF1/SF3A1 constructs in the syringe, WW12 in the cell (N sites <1: more than one WW tandem on one construct); one-site model; apparent
T4 construct: SF1 (splicing factor 1) residues 468-594; pET24 vector with 6xHis, GB1 and TEV site as N-terminal cassette, not cleaved; source: E. coli BL21(DE3), purified (Ni-NTA, SEC); not shown: GB1, N-terminal, kept
T4 sequence (looked up): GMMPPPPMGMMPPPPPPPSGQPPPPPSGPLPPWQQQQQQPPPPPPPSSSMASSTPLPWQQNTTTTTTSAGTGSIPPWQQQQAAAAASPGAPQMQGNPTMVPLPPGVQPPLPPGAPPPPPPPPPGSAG

[5] = target: T5, GB1-SF1 Pro CD (residues 539-639) (UniProt Q15637 539-639); assay: as above
T5 construct: SF1 (splicing factor 1) residues 539-639; pET24 vector with 6xHis, GB1 and TEV site as N-terminal cassette, not cleaved; source: E. coli BL21(DE3), purified (Ni-NTA, SEC); not shown: GB1, N-terminal, kept
T5 sequence (looked up): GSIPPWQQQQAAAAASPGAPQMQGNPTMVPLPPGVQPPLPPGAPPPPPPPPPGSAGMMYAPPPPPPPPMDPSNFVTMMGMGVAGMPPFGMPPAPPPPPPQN

[6] = target: T6, GB1-SF1 Pro BCD (residues 468-639) (UniProt Q15637 468-639); assay: as above
T6 construct: SF1 (splicing factor 1) residues 468-639; pET24 vector with 6xHis, GB1 and TEV site as N-terminal cassette, not cleaved; source: E. coli BL21(DE3), purified (Ni-NTA, SEC); not shown: GB1, N-terminal, kept
T6 sequence (looked up): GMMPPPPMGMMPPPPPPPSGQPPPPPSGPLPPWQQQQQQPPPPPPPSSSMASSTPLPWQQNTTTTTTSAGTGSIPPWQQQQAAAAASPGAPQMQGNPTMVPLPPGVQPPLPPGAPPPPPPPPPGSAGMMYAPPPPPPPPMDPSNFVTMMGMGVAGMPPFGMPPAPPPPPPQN

[7] = target: T7, GB1-SF1 Pro ABCD (residues 410-639) (UniProt Q15637 410-639); assay: as above
T7 construct: SF1 (splicing factor 1) residues 410-639, the complete proline-rich C-terminal region; pET24 vector with 6xHis, GB1 and TEV site as N-terminal cassette, not cleaved; also called complete C-terminal region of SF1; source: E. coli BL21(DE3), purified (Ni-NTA, SEC); not shown: GB1, N-terminal, kept
T7 sequence (looked up): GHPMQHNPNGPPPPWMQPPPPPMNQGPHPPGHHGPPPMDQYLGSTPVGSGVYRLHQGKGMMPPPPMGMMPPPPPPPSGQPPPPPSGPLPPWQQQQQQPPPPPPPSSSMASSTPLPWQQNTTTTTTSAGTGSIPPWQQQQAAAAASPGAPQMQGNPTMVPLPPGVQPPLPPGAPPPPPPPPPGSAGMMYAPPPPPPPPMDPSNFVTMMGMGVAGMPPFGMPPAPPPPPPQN

[8] = target: T8, GB1-SF3A1 C-ter Pro (residues 552-683) (UniProt Q15459 552-683); assay: as above
T8 construct: pET24 vector with 6xHis, GB1 and TEV site as N-terminal cassette, not cleaved; source: E. coli BL21(DE3), purified (Ni-NTA, SEC); not shown: GB1, N-terminal, kept
T8 sequence (looked up): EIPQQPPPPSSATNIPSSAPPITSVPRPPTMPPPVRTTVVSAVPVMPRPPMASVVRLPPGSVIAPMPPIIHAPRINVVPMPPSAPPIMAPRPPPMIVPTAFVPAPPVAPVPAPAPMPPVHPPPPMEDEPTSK

[9] = target: T9, PRPF40A N-ext-WW12 mutant (PPVP and PALPP motifs changed to alanine residues) (human, UniProt O75400 56-236, 78-81 PPVP to AAAA | 123-127 PALPP to AAAAA); assay: ITC; MicroCal PEAQ-ITC, 25 °C, 20 mM sodium phosphate pH 6.5, 100 mM NaCl; PRPF40A constructs and GB1-tagged SF1 16-mer peptides; who was in the syringe is not stated for these panels (Fig. 2B, Fig. 5C); one-site model
T9 construct: PRPF40A isoform 1, residues 56-236, with the two motifs PPVP (78-81) and PALPP (123-127) changed to alanine residues; made by site-directed mutagenesis of N-ext-WW12; also called Nter Ext WW12 MUTANT; mutated version of the N-extWW12; source: E. coli BL21(DE3), purified (Ni-NTA, TEV cleavage, reverse Ni-NTA, SEC); not shown: His6, N-terminal, cleaved
T9 sequence (looked up): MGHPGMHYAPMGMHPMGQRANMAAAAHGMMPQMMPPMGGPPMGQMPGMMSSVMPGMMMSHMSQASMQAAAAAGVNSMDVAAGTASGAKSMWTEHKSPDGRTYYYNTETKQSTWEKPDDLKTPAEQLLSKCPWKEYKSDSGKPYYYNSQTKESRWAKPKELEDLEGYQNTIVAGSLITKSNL

[10] = target: T10, PRPF40A N-ext-WW12 (residues 56-236) (human, UniProt O75400 56-236); assay: as above
T10 construct: PRPF40A isoform 1, residues 56-236: N-terminal proline-rich region and both WW domains; pETM11 vector; also called Nter Ext WW12; N-terminal extended WW12 construct; source: E. coli BL21(DE3), purified (Ni-NTA, TEV cleavage, reverse Ni-NTA, SEC); not shown: His6, N-terminal, cleaved
T10 sequence (looked up): T9 sequence (looked up) with A23P, A24P, A25V, A26P, A68P, A70L, A71P, A72P

Binder | stoichiometry N [1] | stoichiometry N [2] | stoichiometry N [3] | Kd [4] | Kd [5] | Kd [6] | Kd [7] | Kd [8] | Kd [9] | Kd [10]
B1 | 1.41 and 1.37 and 1.39 | 2.21 and 2.39 and 2.3 | 2.38 and 2.56 and 2.47 | 3.63 µM and 7.76 µM and 9.11 µM and 6.83 µM | 2.83 µM and 4.32 µM and 4.26 µM and 3.8 µM | 2.93 µM and 4.36 µM and 3.65 µM | 5.41 µM and 4.4 µM and 4.91 µM | 23.8 µM and 14.8 µM and 19.3 µM |  | 
B2 |  |  |  |  |  |  |  |  | 2.44 µM and 1.98 µM and 2.21 µM | 9.19 µM and 8.22 µM and 8.71 µM
